Measured values taken from patent US20100233802A1.

Columns and labels:
[1] = biological target: SNAP-25 peptide comprising amino acids 134-206 of SEQ ID NO: 5 (human); experiment: SPR, BIAcore 3000, peptide on CM5 chip, antibody as analyte, 1:1 model
[2] = biological target: SNAP-25 peptide comprising amino acids 134-197 of SEQ ID NO: 5 (human); experiment: as above

Substance | Kd [1] [µM] | koff [1] [s⁻¹] | Kd [2] [nM] | koff [2] [s⁻¹] | kon [2] [M⁻¹ s⁻¹] | kon [1] [M⁻¹ s⁻¹]
mouse α-SNAP-25 monoclonal antibody MC-6053 (Research & Diagnostic Antibodies) | 0.24 | 2.56e-05 | 0.508 | 0.00118 | 2.32e+06 | –
mouse α-SNAP-25 monoclonal antibody MC-6050 (Research & Diagnostic Antibodies) | 19.8 | 0.00607 | 0.497 | 0.000882 | 1.78e+06 | 306
